Columns and labels:
[1] = molecular target: T1, hIL4R-His, Interleukin-4 receptor subunit alpha (Homo sapiens) aa 27-227 (Homo sapiens, UniProt P24394 27-227); assay: BLI Octet RED 384; antibody on ProA sensor, antigen 30 ug/ml
T1 construct: range 27-227; not shown: His tag as the name implies
T1 sequence (looked up): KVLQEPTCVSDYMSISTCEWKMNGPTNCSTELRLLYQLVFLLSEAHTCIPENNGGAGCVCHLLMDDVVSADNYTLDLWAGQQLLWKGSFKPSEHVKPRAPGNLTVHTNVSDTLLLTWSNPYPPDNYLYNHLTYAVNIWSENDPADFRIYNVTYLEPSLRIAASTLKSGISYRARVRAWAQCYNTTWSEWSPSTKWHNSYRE

[2] = molecular target: T2, IL5R-His, Interleukin-5 receptor subunit alpha (Homo sapiens) aa 22-342 (Homo sapiens, UniProt Q01344 22-342); assay: as above
T2 construct: not shown: His tag as the name implies
T2 sequence (looked up): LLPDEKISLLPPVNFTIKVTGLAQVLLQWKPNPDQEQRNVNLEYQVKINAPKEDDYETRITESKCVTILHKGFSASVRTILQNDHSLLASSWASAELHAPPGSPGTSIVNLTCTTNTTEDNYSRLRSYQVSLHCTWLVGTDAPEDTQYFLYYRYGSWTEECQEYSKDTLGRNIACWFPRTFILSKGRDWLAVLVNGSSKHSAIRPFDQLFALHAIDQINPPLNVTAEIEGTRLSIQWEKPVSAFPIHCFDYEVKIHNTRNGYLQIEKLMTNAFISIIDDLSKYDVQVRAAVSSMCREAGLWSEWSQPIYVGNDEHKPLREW

[3] = molecular target: T3, Her3-H6F, Receptor tyrosine-protein kinase erbB-3 (Homo sapiens) aa 21-643 (Homo sapiens, UniProt P21860 21-643); assay: as above
T3 construct: not shown: His and FLAG tags implied by the name 'H6F'

[4] = molecular target: T4, extracellular domain of the human CSF1R protein (hCSF1R_His) (Homo sapiens, UniProt P07333 20-512); assay: as above
T4 construct: range 20-512; Molecular weight 57.4 kDa; made in CHO cells; also called hCSF1_His; not shown: C-terminal His and FLAG tags

[5] = molecular target: T5, biotinylated peptide [NH2]…JQS[CH2CH2]biotin comprising a fragment of the human CD20 sequence (human, [NH2] at the N-terminus; [CH2CH2]biotin at the C-terminus; the letter J at position 20 is printed so and is not a standard residue code); assay: BLI Octet RED 384; biotinylated peptide on SAX sensor, antibody in solution; 1:1 global fit
T5 construct: also called CD20 peptide
Experimental: In the case of the biotinylated CD20 peptide, the peptide at a concentration of 5 μg/ml was immobilized on the surface of SAX sensors (High Precision Streptavidin (SAX) biosensors, ForteBio) for 120 seconds. The baseline was recorded in a 1×KB solution for 120 seconds. The sensors containing the loaded peptide were immersed into wells containing the antibody solution (analyte) in 1×KB for 15 seconds. Measurements were carried out for solutions with analyte (antibodies in the case of CD20 peptide) at concentrations of 150 μg/ml, 75 μg/ml, 37.5 μg/ml. Complex dissociation was recorded in 1×KB for 120 seconds.
All measurements were carried out at 30° C., orbital mixing speed was 1,000 revolutions per minute.
To obtain numerical values of kinetic constants (kₒₙ is the on/association rate constant, kdis is the dissociation rate constant, KD is the equilibrium dissociation constant or affinity constant), the resulting sensograms were processed according to the 1:1 interaction model using Global Fit (selection of one set of kon, kdis, KD constants to analyze several sensograms of different concentrations) of the ForteBio Octet Data Analysis 9.0 software.

T5 sequence (peptide, as listed by the source): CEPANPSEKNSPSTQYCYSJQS
T3 sequence (P21860 21-643 limits assumed): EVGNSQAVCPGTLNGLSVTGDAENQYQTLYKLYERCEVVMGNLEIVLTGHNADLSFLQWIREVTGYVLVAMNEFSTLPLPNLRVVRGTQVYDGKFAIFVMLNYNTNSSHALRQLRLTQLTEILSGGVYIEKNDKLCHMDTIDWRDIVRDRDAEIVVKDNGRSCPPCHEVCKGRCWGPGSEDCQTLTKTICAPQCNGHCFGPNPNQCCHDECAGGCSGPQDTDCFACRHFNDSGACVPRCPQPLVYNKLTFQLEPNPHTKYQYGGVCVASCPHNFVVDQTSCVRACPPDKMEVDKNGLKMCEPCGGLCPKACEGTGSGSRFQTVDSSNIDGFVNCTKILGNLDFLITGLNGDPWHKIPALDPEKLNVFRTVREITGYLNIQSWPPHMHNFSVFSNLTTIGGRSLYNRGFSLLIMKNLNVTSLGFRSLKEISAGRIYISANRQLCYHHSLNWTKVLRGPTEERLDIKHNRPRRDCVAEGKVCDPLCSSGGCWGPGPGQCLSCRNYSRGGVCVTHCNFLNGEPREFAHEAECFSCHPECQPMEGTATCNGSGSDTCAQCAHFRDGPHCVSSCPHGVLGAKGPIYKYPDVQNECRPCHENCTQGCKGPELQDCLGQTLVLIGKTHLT
T4 sequence (P07333 20-512 limits assumed): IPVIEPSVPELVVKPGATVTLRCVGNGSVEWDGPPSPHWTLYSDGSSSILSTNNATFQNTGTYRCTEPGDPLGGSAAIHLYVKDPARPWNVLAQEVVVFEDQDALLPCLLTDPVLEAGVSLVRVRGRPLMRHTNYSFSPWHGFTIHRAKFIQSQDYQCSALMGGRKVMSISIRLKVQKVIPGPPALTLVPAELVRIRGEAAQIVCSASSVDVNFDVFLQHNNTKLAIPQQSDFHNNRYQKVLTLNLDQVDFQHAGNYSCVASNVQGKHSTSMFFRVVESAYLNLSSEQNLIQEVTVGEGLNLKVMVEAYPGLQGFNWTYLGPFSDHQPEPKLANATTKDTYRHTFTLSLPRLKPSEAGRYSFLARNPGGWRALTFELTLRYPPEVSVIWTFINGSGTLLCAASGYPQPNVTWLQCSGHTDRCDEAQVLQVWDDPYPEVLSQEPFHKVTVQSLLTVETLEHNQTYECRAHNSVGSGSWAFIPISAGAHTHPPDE

- binding result [1]: no binding (tested: 1154 nM)
- binding result [2]: no binding (tested: 757.6 nM)
- binding result [3]: no binding (tested: 420.8 nM)
- binding result [4]: no binding (tested: 522.5 nM)
- Kd [5]: 1270 nM
- koff [5]: 0.238 s⁻¹
- kon [5]: 188000 M⁻¹ s⁻¹
B1: 02-004, bivalent bispecific chimeric antibody that specifically binds to PD1 and CD20 (bispecific antibody, human IgG1, kappa, L234A L235A)
heavy 1: QVQLVQSGGGLVQPGGSLRLSCAASGFTFSSYWMYWVRQVPGKGLEWVSAIDTGGGRTYYADSVKGRFAISRVNAKNTMYLQMNSLRAEDTAVYYCARDEGGGTGWGVLKDWPYGLDAWGQGTLVTVSSASTKGPSVFPLAPSSKSTSGGTAALGCLVKDYFPEPVTVSWNSGALTSGVHTFPAVLQSSGLYSLSSVVTVPSSSLGTQTYICNVNHKPSNTKVDKRVEPKSCDKTHTCPPCPAPEAAGGPSVFLFPPKPKDTLYITREPEVTCVVVDVSHEDPEVKFNWYVDGVEVHNAKTKPREEQYNSTYRVVSVLTVLHQDWLNGKEYKCKVSNKALPAPIEKTISKAKGQPREPQVCTLPPSRDELTKNQVSLSCAVKGFYPSDIAVEWESNGQPENNYKTTPPVLDSDGSFFLVSKLTVDKSRWQQGNVFSCSVMHEALHNHYTQKSLSLSPGK
light 1: QPVLTQPLSVSVALGQTARITCGGNNIGSKNVHWYQQKPGQAPVLVIYRDSNRPSGIPERFSGSNSGNTATLTISRAQAGDEADYYCQVWDSSTAVFGTGTKLTVLQRTVAAPSVFIFPPSDEQLKSGTASVVCLLNNFYPREAKVQWKVDNALQSGNSQESVTEQDSKDSTYSLSSTLTLSKADYEKHKVYACEVTHQGLSSPVTKSFNRGEC
heavy 2: not shown
light 2: DIQMTQSPSSLSASVGDRVTITCRASSSVSYMHWYQQKPGKAPKPLIYAPSNLASGVPSRFSGSGSGTDFTLTISSLQPEDFATYYCQQWSFNPPTFGQGTKVEIKQRQVKPEAWLSSGPSPGPGRLQLVCHVSGFYPKPVWVMWMRGEQEQQGTQLGDILPNANWTWYLRATLDVADGEAAGLSCRVKHSSLEGQDIILYWRGSC
notes: Produced in CHO cells

From patent publication US20250340613A1 (JOINT STOCK COMPANY BIOCAD, published 2025)
